Measurements published in patent CN113045659A (NOVOPROTEIN SCIENT INC, dated 2021).
Changes are numbered by the printed parent chain.

T1: 重组人CD73蛋白 (human, UniProt P21589 27-547, limits assumed)
T1 construct: Coated at 3 ug/ml in the ELISA and used at 5 ug/ml in the enzyme assay; also called rhCD73
T1 sequence (looked up): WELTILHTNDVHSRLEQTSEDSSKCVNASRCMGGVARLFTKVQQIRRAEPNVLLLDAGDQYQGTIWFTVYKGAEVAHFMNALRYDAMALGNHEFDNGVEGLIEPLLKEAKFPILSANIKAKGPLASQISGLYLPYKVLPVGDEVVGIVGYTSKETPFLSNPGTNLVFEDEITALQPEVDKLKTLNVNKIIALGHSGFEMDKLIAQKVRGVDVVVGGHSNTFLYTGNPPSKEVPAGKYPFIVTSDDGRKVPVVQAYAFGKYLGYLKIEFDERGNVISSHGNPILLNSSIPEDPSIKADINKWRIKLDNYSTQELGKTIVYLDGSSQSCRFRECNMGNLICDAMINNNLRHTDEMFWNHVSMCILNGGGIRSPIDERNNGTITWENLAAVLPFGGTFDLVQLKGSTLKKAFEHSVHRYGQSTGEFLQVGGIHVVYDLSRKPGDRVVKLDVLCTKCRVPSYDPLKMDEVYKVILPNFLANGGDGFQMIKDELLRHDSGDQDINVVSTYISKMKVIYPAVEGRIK

T2: SK-OV-3细胞上的CD73 (human, UniProt P21589 27-549)
T2 construct: whole, on cells; Endogenous CD73 of the human CD73-positive cell line SK-OV-3; also called 人CD73阳性细胞; SK-OV-3细胞表面的CD73
T2 sequence (looked up): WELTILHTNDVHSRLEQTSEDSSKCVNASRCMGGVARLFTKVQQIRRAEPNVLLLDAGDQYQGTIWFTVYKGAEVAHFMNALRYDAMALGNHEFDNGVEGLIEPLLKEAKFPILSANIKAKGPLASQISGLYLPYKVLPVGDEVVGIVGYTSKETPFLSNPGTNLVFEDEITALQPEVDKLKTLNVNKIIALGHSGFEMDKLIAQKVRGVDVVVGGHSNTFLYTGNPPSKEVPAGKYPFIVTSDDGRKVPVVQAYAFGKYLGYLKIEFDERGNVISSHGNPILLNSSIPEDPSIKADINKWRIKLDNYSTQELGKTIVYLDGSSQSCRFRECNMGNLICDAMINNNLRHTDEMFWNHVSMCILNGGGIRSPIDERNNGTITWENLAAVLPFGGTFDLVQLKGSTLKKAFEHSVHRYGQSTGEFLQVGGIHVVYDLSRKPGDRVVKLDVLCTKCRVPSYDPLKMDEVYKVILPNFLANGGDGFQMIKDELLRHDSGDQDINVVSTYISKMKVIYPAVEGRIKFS

B1: 137-4 (antibody, IgG1, V domains shown)
VH: QVQLVQSGAEVKKPGSSVKVSCKASGYSFTGYYIHWVRQAPGQGLEWMGRINPYNGATTYNQNFKDRVTITVDKSTSTAYMELSSLRSEDTAVYYCARFHYGAVDYWGQGTLVTVSS
VL: DIQMTQSPSSLSASVGDRVTITCKASQDINTYLTWYQQKPGKAPKTLIYRANILVDGVPSRFSGSGSGTDFTLTISSLQPEDFATYYCLQYEEFPLTFGGGTKVEIKR
notes: also called 人源化CD73抗体; CQ137人源化抗体; not shown: kappa constant region
B2: 137-7 (antibody, IgG1, V domains shown)
VH: B1 VH with V104P, D105N
VL: B1 VL with E92D, E93D
notes: as for B1
B3: 137-5 (antibody, IgG1, V domains shown)
VH: B1 VH with V104A
VL: B1 VL with E92N
notes: as for B1
B4: 137-6 (antibody, IgG1, V domains shown)
VH: B1 VH with V104P, D105E
VL: B1 VL with E92A
notes: as for B1
B5: 137-8 (antibody, IgG1, V domains shown)
VH: B1 VH with V104P, Y106F
VL: B1 VL with E92D, E93Q
notes: as for B1
B6: 137-9 (antibody, IgG1, V domains shown)
VH: B1 VH with V104P, Y106L
VL: B1 VL with E92D, E93A
notes: as for B1

These binders were tested against T1, 重组人CD73蛋白 (assay: ELISA, recombinant human CD73 coated at 3 ug/ml).

Row | binding result | Binder
1 | binds | B1
2 | binds | B2
3 | binds | B3
4 | binds | B4
5 | binds | B5
6 | binds | B6

The binders below were run against T2, SK-OV-3细胞上的CD73 (assay: flow cytometry on SK-OV-3 cells, Anti-hFC-APC).

Row | binding result | Binder
7 | binds | B1
8 | binds | B2
9 | binds | B3
10 | binds | B4
11 | binds | B5
12 | binds | B6
